Data published in patent US12448610B2, “Preparation of glycosyltransferase UGT76G1 mutant and use thereof” (CAS Center for Excellence in Molecular Plant Sciences, priority 2019, dated 2025).
Where a chain is given by its changes, count along the chain named. Numbers in names are those of the source.

B1: wild-type UGT76G1: wild-type glycosyltransferase UGT76G1 derived from Stevia rebaudiana, amino acid sequence of SEQ ID NO: 1 (protein, listed as Stevia rebaudiana)
chain: MENKTETTVRRRRRIILFPVPFQGHINPILQLANVLYSKGFSITIFHTNFNKPKTSNYPHFTFRFILDNDPQDERISNLPTHGPLAGMRIPIINEHGADELRRELELLMLASEEDEEVSCLITDALWYFAQSVADSLNLRRLVLMTSSLFNFHAHVSLPQFDELGYLDPDDKTRLEEQASGFPMLKVKDIKSAYSNWQILKEILGKMIKQTKASSGVIWNSFKELEESELETVIREIPAPSFLIPLPKHLTASSSSLLDHDRTVFQWLDQQPPSSVLYVSFGSSSEVDEKDFLEIARGLVDSKQSFLWVVRPGFVKGSTWVEPLPDGFLGERGRIVKWVPQQEVLAHGAIGAFWTHSGWNSTLESVCEGVPMIFSDFGLDQPLNARYMSDVLKVGVYLENGWERGEIANAIRRVMVDEEGEYIRQNARVLKQKADVSLMKGGSSYESLESLVSYISSL
B2: L204F: glycosyltransferase UGT76G1 mutant, mutation of L at 204th to F (SEQ ID NO: 4) (protein)
chain: B1 chain with L204F
modifications: Variant
B3: I199F: glycosyltransferase UGT76G1 mutant, mutation of I at 199th to F (SEQ ID NO: 3) (protein)
chain: B1 chain with I199F
modifications: Variant
B4: L379W: glycosyltransferase UGT76G1 mutant, mutation of L at 379th to W (SEQ ID NO: 5) (protein)
chain: B1 chain with L379W
modifications: Variant
B5: G87F: glycosyltransferase UGT76G1 mutant, mutation of G at 87th to F (SEQ ID NO: 2) (protein)
chain: B1 chain with G87F
modifications: Variant

Key:
Format in all cases: biochemical
[1] = Enzymic reaction of UGT76G1 wild-type and mutants in vitro, substrate isoorientin, products detected by HPLC; settings: for conversion efficiency of isoorientin (compound 1): HPLC analysis of FIG. 1; for conversion efficiency of isoorientin (compound 1) / glycosylation efficiency: in words; for yield of compound 2 as compared with the wild type / yield of compound 3 as compared with the wild type: substrate isoorientin 250 μM, 5 μg protein, 1.5 mM UDP-glucose, 37° C. overnight, HPLC peak area, 100% for the wild type; for glycosylation efficiency: substrate isoorientin, versus wild type
Procedure: The enzyme activity of the glycosyltransferase UGT76G1 mutant can be detected by a technique known in the art. In a specific example of the present invention, the enzyme reaction system with the same conditions is used to detect the enzyme activity of different mutants in vitro. After the reaction, the product was detected by HPLC. The change of a mutant's catalytic activity was analyzed by comparing the relative conversion ratio of the flavonoid isoorientin by the mutant and the wild-type protein.
(§1) The enzymic reaction system (50 μL) includes: 5 μg protein, 1.5 mM UDP-glucose, 250 μM glycosyl acceptor substrate isoorientin, orientin, apigenin or luteolin, and Buffer A (20 mM Tris-HCl, pH=8.0, 100 mM NaCl). The reaction of each mutant protein for the same substrate was repeated three times. Reaction conditions: 37° C. overnight. The reaction was quenched with an equal volume of methanol. After vigorous shaking, the reaction was centrifuged at 12000 rpm for 30 min. The supernatant was used for HPLC detection. Detection method: mobile phase A (acetonitrile, containing 0.1% formic acid)—mobile phase B (water, containing 0.1% formic acid) gradient elution. Chromatographic conditions: gradient elution from initial 5% A to 50% A within 11 min, elution at 100% A for 4 min, and back to 5% A within 1 min for equilibration for 4 min. The peak area of the catalytic product of the mutant was calculated and compared with the peak area of the catalytic product of wild-type UGT76G1.

[2] = Enzymic reaction of UGT76G1 wild-type and mutants in vitro, substrate orientin, products detected by HPLC; settings: in words
Procedure: as §1

[3] = Enzymic reaction of UGT76G1 wild-type and mutants in vitro, substrate apigenin, products detected by HPLC; settings: HPLC analysis of FIG. 7; compared with wild-type (WT) or mutants I90L, I199L; in words
Procedure: as §1

[4] = Enzymic reaction of UGT76G1 wild-type and mutants in vitro, substrate luteolin, products detected by HPLC; settings: HPLC analysis of FIG. 8; compared with wild-type (WT) or mutants I90L, I199L; in words
Procedure: as §1

[5] = substrate orientin, versus wild type

Molecule | conversion efficiency of isoorientin (compound 1) [1] | conversion rate for orientin (compound 4) ([2]; HPLC analysis of FIG. 5) | yield of compound 2 as compared with the wild type [1] | yield of compound 3 as compared with the wild type [1] | glycosylation efficiency [1] | production efficiency of product 5 [2, 5] | glycosylation products of apigenin (compound 7) [3] | glycosylation products of luteolin (compound 8) [4] | production efficiency of product 6 [2, 5]
B1 | low | a certain conversion rate |  |  |  |  |  |  | 
B2 |  |  | 285% | 159% | significantly increased | can increase | significantly different from those converted by wild-type | significantly different from those converted by wild-type | 
B3 |  |  | 799% | 278% | significantly increased |  |  |  | 
B4 |  |  |  |  |  |  |  |  | can increase
B5 | relatively the highest |  | 1381% | 1235% | significantly increased |  | significantly different from those converted by wild-type | significantly different from those converted by wild-type | 
